Data published in the supplement of paper PMC7877785.
± gives the uncertainty stated by the source.

Assay: self-splicing fitness, log relative to wild type (ln ratio); higher = more splicing; Tetrahymena group I intron in knt gene, E. coli kanamycin selection, DiMSum; sequences stand for … in CUCUCU…GGAGGGAAAAGUUAUCAGGCAUGCACCUGGUAGCUAGUCUUUAAACCAAUAGAUUGCAUCGGUUUAAAAGGCAAGACCGUCAAAUUGCGGGAAAGGGGUCAACAGCCGUUCAGUACCAAGUCUCAGGGGAAACUUUGAGAUGGCCUUGCAAAGGGUAUGGUAAUAAGCUGACGGACAUGGUCCUAACCACGCAGCCAAGUCCUAAGUCAACAGAUCUUCUGUUGAUAUGGAUGCAGUUCACAGACUAAAUGUCGGUCGGGGAAGAUGUAUUCUUCUCAUAAGAUAUAGUCGGACCUCUCCUUAAUGGGAGCUAGCGGAUGAAGUGAUGCAACACUGGAGCCGCUGGGAACUAAUUUGUAUGCGAAAGUAUAUUGAUUAGUUUUGGAGUACUCGUGGUCG
In short: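 Six replicate transformations of E. coli BL21(DE3) with a pET-22b(+) library were grown overnight at 37°C or 30°C. The library randomised all eight P1ex-region intron nucleotides, the intron lying in the knt kanamycin-resistance gene, and plates were LB agar with or without 25 μg/mL kanamycin plus 100 μg/mL carbenicillin, 50 μM IPTG and 0.2% rhamnose. Pooled colonies were amplicon-sequenced on an Illumina HiSeq 2500, and fitness is the DiMSum error-weighted combination of wild-type-normalised replicate fold changes, kanamycin versus none.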

Sequence	self-splicing fitness (ln) (30 °C)	self-splicing fitness (ln) (37 °C)
AUAAAGCAAUAUUACGAAUG	-1.48 ± 0.1	-0.422 ± 0.12
AUAAAGCAAUAUUACGCAUU	-1.82 ± 0.086	-0.523 ± 0.11
AUAAAGCAAUAUUACGCCUA	-0.422 ± 0.091	-0.286 ± 0.1
AUAAAGCAAUAUUACGCGUC	-4.6 ± 0.46	-2.73 ± 0.29
AUAAAGCAAUAUUACGCUGU	-0.921 ± 0.09	-0.246 ± 0.1
AUAAAGCAAUAUUACGGAUG	-1.69 ± 0.072	-0.844 ± 0.11
AUAAAGCAAUAUUACGGGGU	-2.63 ± 0.16	-1.99 ± 0.14
AUAAAGCAAUAUUACGGUAA	-1.21 ± 0.077	-0.709 ± 0.09
AUAAAGCAAUAUUACGGUAC	-1.89 ± 0.11	-2.6 ± 0.17
AUAAAGCAAUAUUACGGUCG	0.114 ± 0.059	-0.114 ± 0.083
AUAAAGCAAUAUUACGUCCG	-0.335 ± 0.11	0.106 ± 0.13
AUAAAGCAAUAUUACGUCGA	-0.992 ± 0.068	0.858 ± 0.086
AUAAAGCAAUAUUACGUUGG	-2.08 ± 0.11	-2.15 ± 0.15
AUACAGCAAUAUUACGAAUG	-2.16 ± 0.14	-2.7 ± 0.19
AUACAGCAAUAUUACGACUG	-1.52 ± 0.077	-0.848 ± 0.097
AUACAGCAAUAUUACGAUGC	-1.75 ± 0.11	-1.17 ± 0.16
AUACAGCAAUAUUACGCAAA	-2.45 ± 0.21	-1.07 ± 0.18
AUACAGCAAUAUUACGCACC	-1.21 ± 0.086	-1.05 ± 0.1
AUACAGCAAUAUUACGCCAA	-2.6 ± 0.19	-1.22 ± 0.18
AUACAGCAAUAUUACGCGUG	-0.923 ± 0.063	-0.481 ± 0.082
AUACAGCAAUAUUACGCUCA	-0.776 ± 0.069	0.318 ± 0.086

Sequence	self-splicing fitness (ln) (30 °C)	self-splicing fitness (ln) (37 °C)
AUACAGCAAUAUUACGGACA	-1.55 ± 0.13	-0.413 ± 0.13
AUACAGCAAUAUUACGGCGU	-0.145 ± 0.065	0.665 ± 0.076
AUACAGCAAUAUUACGGUCU	0.331 ± 0.06	-0.16 ± 0.064
AUACAGCAAUAUUACGGUUA	-0.52 ± 0.069	-0.372 ± 0.071
AUACAGCAAUAUUACGUCAG	-3.05 ± 0.13	-1.23 ± 0.13
AUACAGCAAUAUUACGUUAC	-3.94 ± 0.25	-2.79 ± 0.27
AUACAGCAAUAUUACGUUGU	-2.77 ± 0.098	-2.81 ± 0.13
AUAGAGCAAUAUUACGAAAU	-0.572 ± 0.1	0.0653 ± 0.13
AUAGAGCAAUAUUACGAACA	-1.9 ± 0.16	-1.09 ± 0.25
AUAGAGCAAUAUUACGAACC	-2.16 ± 0.14	-1.02 ± 0.14
AUAGAGCAAUAUUACGAGCA	-2.57 ± 0.19	-0.949 ± 0.2
AUAGAGCAAUAUUACGAGGU	-3.58 ± 0.44	-2.94 ± 0.27
AUAGAGCAAUAUUACGAGUA	-3.77 ± 0.33	-2.52 ± 0.28
AUAGAGCAAUAUUACGAUAG	-3.43 ± 0.34	-1.62 ± 0.23
AUAGAGCAAUAUUACGAUCC	-3.08 ± 0.33	-2.18 ± 0.36
AUAGAGCAAUAUUACGAUUA	-2.45 ± 0.21	-0.158 ± 0.17
AUAGAGCAAUAUUACGCACG	-1.57 ± 0.18	-0.997 ± 0.23
AUAGAGCAAUAUUACGCCAU	-2.25 ± 0.18	-1.66 ± 0.27
AUAGAGCAAUAUUACGCCCU	-0.756 ± 0.19	-0.622 ± 0.37
AUAGAGCAAUAUUACGCCGA	-1.81 ± 0.19	-0.0699 ± 0.32
AUAGAGCAAUAUUACGCCGC		-2.75 ± 0.44
